{"source": "the DeepSol protein solubility set"}
{"test": "soluble on expression in E. coli; label from the status in PepcDB or PDB records"}
{"sequence": "MGSDKIHHHHHHMTQKLPRQATASEESLMRIFTVPEDAESTLSIIEQKLSEDLAGFLGDSIAALEKPLSEIETDFQAFKIPTQPRFVSDYTDEIMQNLVAHSVHTSAPSFIGHMTSALPYFVLPLSKMMVGLNQNLVKIETSKAFTPLERQVLGMMHHLIYAQNTDFYQSWMHSANHSLGAFCSGGTVANITALWIARNQLLKADGEFKGVTREGLLKALRYYGYDDLAILVSERGHYSLGKAVDLLGIGRDNIISIPTDSHNKVDIAKMRKAALELARKNIKVLAIVGVAGTTETGNVDPLIELAALAKELNCHFHVDAAWGGASLLSNKYRHLLAGIELADSVTIDAHKQMYVPMGAGMVLFKNPEFAHAIAHHAEYILRRGSKDLGSQTLEGSRPGMAMLVHACLQIIGLDGYEILINNSIEKARYFAEQIKAHRDFELVTEPELCLLTYRYVPAKVQAAMQVAIEQGDTAKLARFNELLDGLTQFIQKHQREQGKSFVSRTRISPARYFRQATVVFRVVLANPLTSHDILNQVLVEQSEIAALDKEFLPALLAMVAE", "soluble on expression in E. coli": "not soluble"}
{"sequence": "MTYQTIVVAVDGSKEAEWALKKAIQIAKRNGAKLILSHIIDLRGFTTVEAHDYALAERSEQYANELLERYKNEAIAAGLDDVDIAVEFGSPKVKIAKDVAPKYKADLIVCGATGLNAVERLLIGSVSENIVRHAKCDVLVVRTPKE", "soluble on expression in E. coli": "soluble"}
{"sequence": "MGSDKIHHHHHHLKEAILSPRFYTTDFKAIDRLEIDRNGLRDEFDWIRDEFAYDYNRTHFRRTDEFLQDFDDMPERDSFIDFLERSCTAEFSGCLLYAEMVKHLHDPTLRAIFKYMSRDEGRHAGFLNRTMADLNVALDLTVLQKRKKYTYFQPKFIFYSVYLSEKIGYSRYITIYRHLERNPQYCIHPIFKWFEQWCNDEYRHGEFFALLMRSQPEMLEGVNRRWIRFFLLAVYATMYLNDARRSNFYAALGLDWRDYDQTVIRLCNDIATQVYPETMNLDDPRFFAYMDKLVEYDRALRALESRKDPIAMAHSTRLKAAIALRLLAIYRLPTRKTTEAIRWKGLPGFPNYPGPNRPQRVVAAD", "soluble on expression in E. coli": "not soluble"}
{"sequence": "MGSDKIHHHHHHMLSRTADNLYWMTRYVERAENMARILDVSYRMSQLPRNGTDAAVEWEPALIISGQKPDFETRFEEITAGNVIAYMALDPENPSSIVSTLHAARENARAERFVLPQEMFEGLNATWLELQSLSYARLVDWGFREFFEWVKERSHQFLGTTIGTMLQTDGFHFTRLGTFIERADNTARLLDVKYHVLMPDENRLDEAVDYYQWGAVLRAMSALKAYRMVYRDTIKPRQVIDLLTLKREFPRSLHLCYENLHDLLEHLAPGAECTRLTGEMHAKLRYGRIQDITRRGLHRFLTDFITHNAAVSAEIGRTFHLVADIGVQTPVKEAKEAKRADDGGEAEEAGSVQQQRQ", "soluble on expression in E. coli": "not soluble"}
{"sequence": "MDTFGLIQLAELIYEYCGIDFFKNLSSLESKISERLKELGLSCWEYGGYLRVEPKEWDTLIDLITVNETYFFREENLLEEFQKVILPKYKDRTPNNPLRIWSSACSSGEEPYTLAILSEETGLFETGAVEIIASDIDKKVLEKARRGLYNKKSFSFRTMPKEILDKYFISFGDDYKVKDSIRAMVDFRRVNLLDENKLEKVGEVDIVFCRNVLIYFDTKAINKVINSLYKVLRAGGYLFLGHAETITGMNTGFETIYTPSAFYYRKGERH", "soluble on expression in E. coli": "not soluble"}
{"sequence": "MAHHHHHHMPLVKAETDASFVAEVAESVGGACARMNDHISVMIEEYLRRRTQQVRDDVKQELDAVRVHLERKIADAEAAKAVEEERYHKKKVQVLQAAVELQKMHANLHLQRLFHTWRRCADVRQERRRLAEEAHIHIGRLSLFHAYMQWRLFAAALRQKRLEAKEAHKRDCREQELLGQIEGYQRQLEGERAKDASLNEKLKEAFVRGMCALNREAVHVLHGSEENQDADVEAIAEILSRESHSRHRSVTPGHMDSSTLSNVHGHGVCPVHHIDAKGSFYHPCFSPGYCEYDRHSGSRAPVSSAVPPSASGPFVVSADPKSARSIDSSPPVPFRHLSKSSTTRWRM", "soluble on expression in E. coli": "not soluble"}
{"sequence": "MYQYDEYDQALVSERVAQFRDQIARRLDGELSEEEFLPLRLQNGLYLQKHAYMLRVAIPYGTLSAPQLRALAHVARHYDRGYGHFTTRQNIQFNWIELEQVGDILEHLAGAQMHAIQTSGNCVRNITTEAFAGVAADEWTDPRPLAEILRQWSTVNPEFLFLPRKFKIALSSAVEDRAAVQMHDIGLYLYRHPDAGELRLRVLVGGGLGRTPMLGQVIRDDLPWQHLLSYVEAILRVYNRYGRRDNKYKARIKILVKALGIEAFAREVEEEWQHLRDGPAQLTAEECQRVAERFVLPRYLPPADGELAYGSARAADPAFARWASRNVQAHKVPGYASVVLSTKPGASAPPGDVTAEQMERVADWAERYGFGEIRVAHEQNLVLPDVRLENLHALWREACAAGLGTPNQGLLSDIIACPGGDYCALANAKSIPIAQGIQQRFEDLDHLHDIGELSLNISGCMNACGHHHIGNIGILGVDKSGSEWYQVTLGGAQGKDSALGKVIGPSFSAAEVPAVIERIVETFTDLRVGPERFIDTFNRVGLEPFKARVYARMEEPA", "soluble on expression in E. coli": "not soluble"}
{"sequence": "MEANSGGGGGAEGGRAVTGGGGGGGGSDVELVSKTLQVEHKLFYFDLKENPRGRYLKISEKTSATRSTIIVPSSGISWFLDLFNYYVNSEEHELFSKELQLDSKVFYFDIGENRRGRFLKVSEASVSRNRSTIIVPAGSSPDEGWAAFRNILAEIHEASGLFVMPNQKPSDGQEHLVDDVGAGFIPGHGSQQPSSSEHNVDRTIDSPGSDRSSIILPLSGLKQFHEVIGHFVEITKDKIEVLILLEDGNFQSSNHLNLATSSRLPDRGVQ", "soluble on expression in E. coli": "soluble"}
{"sequence": "MAHHHHHHMIFRFYSKLYKHQCAYKNILYNKYHIEKKLEYFYDSIKKNNYSTLYGIKKNDLLNIKKNSGEFLLLSDIFMIKQNNLFLLNNVRRNFYYNTNIIKGIYNDSLFYYDKKYFSGRSGGLKRKKKRKEERIVNTGSAKRLEFFYPKKKRRQRIGLIQNSRKNIVYDNIFKRFLVYHYKQGIQVFRSFSCKKKRNFEAARNKAIILSNQYNKRFNKHNMNDQQRKDTKNIPLNVMDSNLIAKYNNELIKQIKIIPDKNKSGYRGVFYEPSYHAYICIYNEAGVRKFQIFKIQNNDYLEAYHLALMCRRYKLFKNYQFVFQRNRIRSGRIPLK", "soluble on expression in E. coli": "not soluble"}
{"sequence": "MGGSHHHHHHGMASALDPAGGPRGVLPRPCRVLVLLNPRGGKGKALQLFRSHVQPLLAEAEISFTLMLTERRNHARELVRSEELGRWDALVVMSGDGLMHEVVNGLMERPDWETAIQKPLCSLPAGSGNALAASLNHYAGYEQVTNEDLLTNCTLLLCRRLLSPMNLLSLHTASGLRLFSVLSLAWGFIADVDLESEKYRRLGEMRFTLGTFLLLAALRTYRGRLAYLPVGRVGSKTPASPVVVQQGPVDAHLVPLEEPVPSHWTVVPDEDFVLVLALLHSHLGSEMFAAPMGRCAAGVMHLFYVRAGVSRAMLLRLFLAMEKGRHMEYECPYLVYVPVVAFRLEPKDGKGVFAVDGELMVSEAVQGQVHPNYFWMVSGCVEPPPSWKPQQMPPPEEPL", "soluble on expression in E. coli": "not soluble"}
{"sequence": "MRDWVIPPISCPENEKGEFPKNLVQIKSNRDKETKVFYSITGQGADKPPVGVFIIERETGWLKVTQPLDREAIAKYILYSHAVSSNGEAVEDPMEIVITVTDQNDNRPEFTQEVFEGSVAEGAVPGTSVMKVSATDADDDVNTYNAAIAYTIVSQDPELPHKNMFTVNRDTGVISVLTSGLDRESYPTYTLVVQAADLQGEGLSTTAKAVITVKDINDNAPVFNPS", "soluble on expression in E. coli": "soluble"}
{"sequence": "SLTLPQTERQYLSGHGCDDMVEWDFFCTDGRNSGKWTKIGVPSCWELQGFGTYQYGITFYGKAFPEGIADEKGMYKYEFEVPEKFRGQQVNLVFEASMTDTEVKVNGRKVGSKHQGAFYRFSYNVTDFLKYGKKNLLEVTVSKESENASVNLAERRADYWNFGGIFRPVFLEVKPAINLRHIAIDAQMDGSFRANCYTNLSNDGMSIRAQILDNKGKKLTETTVPVKAGGDWTSLQLKVSDPALWTAETPNLYKAQFSLLDKDGKVLHNETETFGFRTIEVRESDGLYVNGVRIMVRGVNRHSFRPESGRTLSKAKNIEDVLLMKDMNMNSVRLSHYPADPEFLEACDSLGLYVMDELGGWHGKYDTPTGVRLIKGMIERDVNHPSIIWWSNGNEKGWNTELDGEFHKYDPQKRPVIHPQGNFSGFETMHYRSYGESQNYMRLPEIFMPTEFLHGLYDGGHGAGLYDYWEMMRKHPRCIGGFLWVLADEGVKRVDMDGFIDNQGNFGADGIVGPHHEKEGSFYTIKQLWSPVQIMNTSVDKQFDGKFSVENRYDYLNLNTCRFLWKQVKFPTATDASNTTAQVLKQGEVQGSDVAAHSAGVLDIKTTILPDADALFLTAIDRYGHELWRWTFPVNKLNQANEVLSPLSNEG", "soluble on expression in E. coli": "soluble"}
{"sequence": "MKLNVDGLLVYFPYDYIYPEQFSYMRELKRTLDAKGHGVLEMPSGTGKTVSLLALIMAYQRAYPLEVTKLIYCSRTVPEIEKVIEELRKLLNFYEKQEGEKLPFLGLALSSRKNLCIHPEVTPLRFGKDVDGKCHSLTASYVRAQYQHDTSLPHCRFYEEFDAHGREVPLPAGIYNLDDLKALGRRQGWCPYFLARYSILHANVVVYSYHYLLDPKIADLVSKELARKAVVVFDEAHNIDNVCIDSMSVNLTRRTLDRCQGNLETLQKTVLRIKETDEQRLRDEYRRLVEGLREASAARETDAHLANPVLPDEVLQEAVPGSIRTAEHFLGFLRRLLEYVKWRLRVQHVVQESPPAFLSGLAQRVCIQRKPLRFCAERLRSLLHTLEITDLADFSPLTLLANFATLVSTYAKGFTIIIEPFDDRTPTIANPILHFSCMDASLAIKPVFERFQSVIITSGTLSPLDIYPKILDFHPVTMATFTMTLARVCLCPMIIGRGNDQVAISSKFETREDIAVIRNYGNLLLEMSAVVPDGIVAFFTSYQYMESTVASWYEQGILENIQRNKLLFIETQDGAETSVALEKYQEACENGRGAILLSVARGKVSEGIDFVHHYGRAVIMFGVPYVYTQSRILKARLEYLRDQFQIRENDFLTFDAMRHAAQCVGRAIRGKTDYGLMVFADKRFARGDKRGKLPRWIQEHLTDANLNLTVDEGVQVAKYFLRQMAQPFHREDQLGLSLLSLEQLESEETLKRIEQIAQQL", "soluble on expression in E. coli": "not soluble"}
{"sequence": "PTEFLYTSKIAAISWAATGGRQQRVYFQDLNGKIREAQRGGDNPWTGGSSQNVIGEAKLFSPLAAVTWKSAQGIQIRVYCVNKDNILSEFVYDGSKWITGQLGSVGVKVGSNSKLAALQWGGSESAPPNIRVYYQKSNGSGSSIHEYVWSGKWTAGASFGSTVPGTGIGATAIGPGRLRIYYQATDNKIREHCWDSNSWYVGGFSASASAGVSIAAISWGSTPNIRVYWQKGREELYEAAYGGSWNTPGQIKDASRPTPSLPDTFIAANSSGNIDISVFFQASGVSLQQWQWISGKGWSIGAVVPTGTPAGW", "soluble on expression in E. coli": "soluble"}
{"sequence": "MSLQRESLDILKLSQAIKKCDAILIGAGAGLSSAAGLSYSGNRFKKYFNDFITKYHLQDMYSAGFYPYPSLEKYWAYWSRHIYYNRYLEAPKDTYKKLLNLLINKDYFVITTNVDHQFQIAGFIKEKLFYTQGDYGLWQCSKPCHQKTYDNYETVVTMIKQQHDLKIPSSLIPYCPICNAPMTMNLRCDKTFVQDSGWYHAQERYYHFLNKYHYSKIVYLELGVGYNTPGIIKYPFWQLTIENPKAIYACINQDIIDLPSELKKQTIMINDNIHNVLSSLEKLLEGHHHHHH", "soluble on expression in E. coli": "soluble"}
{"sequence": "MGSDKIHHHHHHMAIKILSVDDEQDLEALLTQYFRRKIRKGEYEFSFAHNGLEALRMMLDHPDFDIILSDINMPEMDGLTLLTKINEMRNPALKCIIVSAYGDMENIRTAMNHGAFDFATKPIDMEDLERTIEKAVEQISFIKEAQKEHHQLEEIQYDLNVAREIQQSILPKQFPPFPQYKQFDLYATMSAAKAVGGDFYDFFLVDDNHLGFTIADVSDKGIPAAIFMAISRTVIRATALRQLSPAVCMKESNDLLCRESVNGMFVTTFYAILNIHTGDVVYCNGGHNRPVWIRKNDKVSLLPMTGGMALGVVPGLAYKEQSLKLEAGDSLFLYTDGISEAMNLRNEQYGDIRLVEACSSVKNQSPKSMIEGISESVQSFVNGATQSDDITMLALTYKG", "soluble on expression in E. coli": "not soluble"}
